Columns and labels:
Assay in all cases: radioligand binding
Conditions in all cases: one partner purified
[1] = target: T1, wild type human CCR5 chemokine receptor (human, UniProt P51681 1-352)
T1 construct: source: HOS-CD4-Luc, transiently transfected, on cells (fusion)

[2] = target: T2, CCR5 Thr^2.56(82)Pro/Arg^6.32(225)Gln double-mutant receptor (human, UniProt P51681 1-352, Thr^2.56(82)Pro | Arg^6.32(225)Gln)
T2 construct: also called T^2.56(82)P/R^6.32(225)Q; T^2.69(82)P/R^6.32(225)Q; source: HOS-CD4-Luc, transiently transfected, on cells (fusion)
T2 sequence: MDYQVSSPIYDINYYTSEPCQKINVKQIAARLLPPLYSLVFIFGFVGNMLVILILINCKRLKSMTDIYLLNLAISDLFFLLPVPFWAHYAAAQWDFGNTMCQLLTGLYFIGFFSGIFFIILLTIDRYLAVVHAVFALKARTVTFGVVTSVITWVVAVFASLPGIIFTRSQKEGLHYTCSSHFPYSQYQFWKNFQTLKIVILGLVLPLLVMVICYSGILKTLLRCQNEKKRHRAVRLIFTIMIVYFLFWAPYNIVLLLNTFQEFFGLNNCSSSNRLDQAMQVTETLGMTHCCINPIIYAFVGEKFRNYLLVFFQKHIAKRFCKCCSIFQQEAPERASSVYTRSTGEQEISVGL

[3] = target: T3, CCR5 Thr^2.56(82)Pro mutant receptor (human, UniProt P51681 1-352, Thr^2.56(82)Pro)
T3 construct: also called T^2.69(82)P; source: HOS-CD4-Luc, transiently transfected, on cells (fusion)
T3 sequence: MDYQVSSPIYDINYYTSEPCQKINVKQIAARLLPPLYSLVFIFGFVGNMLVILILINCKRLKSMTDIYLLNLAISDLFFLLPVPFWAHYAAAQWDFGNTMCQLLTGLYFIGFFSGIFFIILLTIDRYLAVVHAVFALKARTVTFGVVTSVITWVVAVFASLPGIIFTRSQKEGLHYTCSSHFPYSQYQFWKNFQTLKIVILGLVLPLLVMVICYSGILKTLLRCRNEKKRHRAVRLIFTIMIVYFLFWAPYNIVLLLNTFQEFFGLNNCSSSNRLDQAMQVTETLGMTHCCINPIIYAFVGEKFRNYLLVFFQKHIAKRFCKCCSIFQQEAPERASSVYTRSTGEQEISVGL

[4] = target: T4, CCR5 Thr^2.56(82)Lys/Arg^6.32(225)Gln double-mutant receptor (human, UniProt P51681 1-352, Thr^2.56(82)Lys | Arg^6.32(225)Gln)
T4 construct: also called T^2.56(82)K/R^6.32(225)Q; T^2.69(82)K/R^6.32(225)Q; source: HOS-CD4-Luc, transiently transfected, on cells (fusion)
T4 sequence: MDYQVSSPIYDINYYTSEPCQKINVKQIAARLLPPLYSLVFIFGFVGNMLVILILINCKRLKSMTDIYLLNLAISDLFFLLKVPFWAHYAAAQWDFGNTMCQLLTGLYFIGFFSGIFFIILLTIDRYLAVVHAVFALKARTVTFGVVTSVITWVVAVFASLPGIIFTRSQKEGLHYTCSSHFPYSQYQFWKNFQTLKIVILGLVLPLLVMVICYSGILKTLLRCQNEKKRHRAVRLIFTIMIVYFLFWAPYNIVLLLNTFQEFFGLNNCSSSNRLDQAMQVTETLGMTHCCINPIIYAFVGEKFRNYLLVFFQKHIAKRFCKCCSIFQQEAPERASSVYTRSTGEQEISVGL

B1: macrophage inflammatory protein 1β (MIP-1β, CCL4), recombinant human, unlabelled (ligand)
chain: APMGSDPPTACCFSYTARKLPRNFVVDYYETSSLCSQPAVVFQTKRSKQVCADPSESWVQEYVYDLELN
notes: also called unlabelled MIP-1β; source: bought: Peprotec (Rocky Hill, NJ)
Question: With B1 as the binder, how does the IC50 [1] read?
Answer: Its IC50 is 32.6 nM.

Question: What about the IC50 [2] of the same binder?
Answer: Its IC50 is 30.6 nM.

Question: What about the IC50 [3] of the same binder?
Answer: The IC50 was 31.9 nM.

Question: What about the IC50 [4] of the same binder?
Answer: Its IC50 is 20.7 nM.
